Test results published in patent publication US20100248975A1, “Fluorogenic peptide substrate arrays for highly multiplexed, real-time monitoring of kinase activities” (priority 2006, published 2010).

Legend:
Src kinase = Src kinase (Homo sapiens, UniProt P12931); assay: Kinase substrate peptide array incubated with Src kinase alone, phospho-specific fluorescent stain; type: biochemical; conditions: incubation with Src alone; 200 μM ATP, 10 mM MgCl2, 1 hour at 30° C.; FIG. 4B
Excerpt: (§1) An array of 2520 peptides with 6 different amino acid sequences repeated 420 times was synthesized in situ. The six sequences were designed to represent wild type and two mutated versions of substrates of Abl and Src tyrosine kinases. The sequence of the peptides were: Abl (wt)—AIYAAPFK (SEQ ID NO:10); Abl (Mt 1)—ARYAAPDK (SEQ ID NO:11); Abl (Mt 2)—AIGAAPFK (SEQ ID NO:12); Src (wt)—EIYGEFKK (SEQ ID NO:13); Src (mt1)—EAYGEAKK (SEQ ID NO:14); and Src (mt2)—EIAGEFKK (SEQ ID NO:15), as shown in FIG. 3A.
(§2) The array was synthesized on amino derivatized silicon wafers coupled with dO-(N-Boc-2-aminoethyl)-O′—(N-diglycolyl-2-aminoethyl)hexaethyleneglycol molecule for spacing out the peptides from the surface. The peptides were synthesized using photodeprotection and t-Boc protected amino acids.
(§3) The kinase substrate array was then assayed for detecting Abl and Src kinase activity. The protecting groups of the side groups of amino acids were cleaved by HBr/TFA treatment for one hour in the presence of the scavengers thioanisole and pentamethylbenzene. The array was subsequently neutralized by 5% DIEA treatment for 5 minutes. The array was blocked with 2% BSA for 1 hour for eliminating non-specific sticking of the kinase to the array. […] The kinase mixture was washed off and the phosphorylated peptides were detected by incubating the array with a phospho-specific fluorescent stain.

[1] = system: combination of Abl and Src; assay: Kinase substrate peptide array incubated with mixture of Abl and Src kinases, phospho-specific fluorescent stain; type: biochemical; conditions: incubation with combination of Abl and Src; 200 μM ATP, 10 mM MgCl2, 1 hour at 30° C.; FIG. 4C
Excerpt: as §1, §2, §3

[2] = system: T1, Abl (Mt 1) substrate peptide ARYAAPDK
T1 sequence: ARYAAPDK

[3] = system: T2, Abl (Mt 2) substrate peptide AIGAAPFK
T2 sequence: AIGAAPFK

[4] = system: T3, Abl (wt) substrate peptide AIYAAPFK
T3 sequence: AIYAAPFK

[5] = system: T4, Src (mt1) substrate peptide EAYGEAKK
T4 sequence: EAYGEAKK

[6] = system: T5, Src (mt2) substrate peptide EIAGEFKK
T5 sequence: EIAGEFKK

[7] = system: T6, Src (wt) substrate peptide EIYGEFKK
T6 sequence: EIYGEFKK

Abl kinase = Abl kinase (Homo sapiens, UniProt P00519); assay: Kinase substrate peptide array incubated with Abl kinase alone, phospho-specific fluorescent stain; type: biochemical; conditions: incubation with Abl alone; 200 μM ATP, 10 mM MgCl2, 1 hour at 30° C.; FIG. 4A
Excerpt: as §1, §2, §3

Chain of Abl kinase (P00519 whole entry): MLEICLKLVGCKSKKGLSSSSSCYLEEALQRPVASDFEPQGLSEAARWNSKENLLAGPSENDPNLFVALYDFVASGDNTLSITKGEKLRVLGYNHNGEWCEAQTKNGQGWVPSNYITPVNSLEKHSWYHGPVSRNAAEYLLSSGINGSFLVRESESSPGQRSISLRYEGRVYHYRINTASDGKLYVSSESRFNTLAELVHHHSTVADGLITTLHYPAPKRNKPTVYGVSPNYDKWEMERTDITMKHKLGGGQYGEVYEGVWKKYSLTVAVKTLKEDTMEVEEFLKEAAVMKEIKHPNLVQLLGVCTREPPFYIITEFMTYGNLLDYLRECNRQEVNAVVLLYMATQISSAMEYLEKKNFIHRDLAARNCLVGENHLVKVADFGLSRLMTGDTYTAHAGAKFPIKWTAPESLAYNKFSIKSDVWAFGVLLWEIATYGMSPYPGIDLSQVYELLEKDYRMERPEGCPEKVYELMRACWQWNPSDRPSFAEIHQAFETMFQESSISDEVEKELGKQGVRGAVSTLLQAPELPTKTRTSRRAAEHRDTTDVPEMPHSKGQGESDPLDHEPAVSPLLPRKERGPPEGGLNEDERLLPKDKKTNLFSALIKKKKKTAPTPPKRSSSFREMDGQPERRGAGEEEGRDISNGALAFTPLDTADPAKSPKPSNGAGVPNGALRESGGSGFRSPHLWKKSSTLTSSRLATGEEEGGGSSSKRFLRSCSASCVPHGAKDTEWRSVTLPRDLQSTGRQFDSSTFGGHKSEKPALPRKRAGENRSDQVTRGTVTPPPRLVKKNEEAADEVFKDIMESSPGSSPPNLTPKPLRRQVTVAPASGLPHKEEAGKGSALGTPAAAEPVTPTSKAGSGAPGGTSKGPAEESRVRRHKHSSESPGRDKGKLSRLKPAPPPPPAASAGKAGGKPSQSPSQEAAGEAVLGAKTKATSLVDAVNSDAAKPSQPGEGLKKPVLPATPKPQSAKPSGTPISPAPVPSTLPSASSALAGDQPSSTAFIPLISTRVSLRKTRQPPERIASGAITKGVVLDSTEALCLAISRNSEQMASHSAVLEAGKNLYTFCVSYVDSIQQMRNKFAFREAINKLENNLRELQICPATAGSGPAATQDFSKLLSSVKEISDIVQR
Chain of Abl kinase (Homo sapiens, UniProt P00519) (P00519 whole entry): as above

**Q.** How did the “phosphorylation of immobilized peptide (fluorescence of array spots)” value (from here on “phosphorylation of immobilized peptide”) (Src kinase) turn out when “EIYGEFKK [SEQ ID NO:13, wild type substrate peptide of Src tyrosine kinase, synthesized in situ on array]” was run?
**A.** Its value is “phosphorylated”.

**Q.** What about the “phosphorylation of immobilized peptide” value [1] of the same substance?
**A.** Its value is “phosphorylated”.

**Q.** What does the source list for Abl kinase?
**A.** phosphorylation of the arrayed peptide, detected with a phospho-specific fluorescent stain [2]: only the corresponding wild type substrate peptide (either SEQ NO:10 or 13, respectively) was phosphorylated (this peptide not phosphorylated); phosphorylation of the arrayed peptide, detected with a phospho-specific fluorescent stain [3]: only the corresponding wild type substrate peptide (either SEQ NO:10 or 13, respectively) was phosphorylated (this peptide not phosphorylated); phosphorylation of the arrayed peptide, detected with a phospho-specific fluorescent stain [4]: in the presence of one kinase, only the corresponding wild type substrate peptide (either SEQ NO:10 or 13, respectively) was phosphorylated; phosphorylation of the arrayed peptide, detected with a phospho-specific fluorescent stain [5]: only the corresponding wild type substrate peptide (either SEQ NO:10 or 13, respectively) was phosphorylated (this peptide not phosphorylated); phosphorylation of the arrayed peptide, detected with a phospho-specific fluorescent stain [6]: only the corresponding wild type substrate peptide (either SEQ NO:10 or 13, respectively) was phosphorylated (this peptide not phosphorylated); phosphorylation of the arrayed peptide, detected with a phospho-specific fluorescent stain [7]: only the corresponding wild type substrate peptide (either SEQ NO:10 or 13, respectively) was phosphorylated (this peptide not phosphorylated)

**Q.** How did the “phosphorylation of immobilized peptide” value (Abl kinase) turn out when “AIYAAPFK [SEQ ID NO:10, wild type substrate peptide of Abl tyrosine kinase, synthesized in situ on array]” was run?
**A.** The value was “phosphorylated”.

**Q.** What about the “phosphorylation of immobilized peptide” value [1] of the same substance?
**A.** Its value is “phosphorylated”.

**Q.** Which results are given for Src kinase?
**A.** phosphorylation of the arrayed peptide, detected with a phospho-specific fluorescent stain [2]: only the corresponding wild type substrate peptide (either SEQ NO:10 or 13, respectively) was phosphorylated (this peptide not phosphorylated); phosphorylation of the arrayed peptide, detected with a phospho-specific fluorescent stain [3]: only the corresponding wild type substrate peptide (either SEQ NO:10 or 13, respectively) was phosphorylated (this peptide not phosphorylated); phosphorylation of the arrayed peptide, detected with a phospho-specific fluorescent stain [4]: only the corresponding wild type substrate peptide (either SEQ NO:10 or 13, respectively) was phosphorylated (this peptide not phosphorylated); phosphorylation of the arrayed peptide, detected with a phospho-specific fluorescent stain [5]: only the corresponding wild type substrate peptide (either SEQ NO:10 or 13, respectively) was phosphorylated (this peptide not phosphorylated); phosphorylation of the arrayed peptide, detected with a phospho-specific fluorescent stain [6]: only the corresponding wild type substrate peptide (either SEQ NO:10 or 13, respectively) was phosphorylated (this peptide not phosphorylated); phosphorylation of the arrayed peptide, detected with a phospho-specific fluorescent stain [7]: in the presence of one kinase, only the corresponding wild type substrate peptide (either SEQ NO:10 or 13, respectively) was phosphorylated
